Results taken from patent publication US20260193348A1.
Substitutions are numbered along the chain they refer to.

B1: Bis-108-H3L4 (bispecific antibody, not shown: a dimerising Fc or GST)
heavy: EVQLVQSGAEVKKPGASVKVSCKASGYTFTSYVIHWVRQAPGQGLEWMGYFNPYNDGTKYNEEFKGRVTLTSDKSTSTAYMELRSLRSDDTAVYYCARGGVRRYFDVWGQGTTVTVSS
heavy (part 1 of 2): B1 heavy
heavy (part 2 of 2): GGGGSGGGGSEVQLVESGGGLVQPGGSLRLSCAASGFTFNTYAMNWVRQAPGKGLEWVARIRSKYNNYATYYAASVKGRFTISRDDSKNSLYLQMNSLKTEDTAVYYCARHGNFGNSYVSWFAYWGQGTLVTVSSGGGGSGGGGSGGGGSGGGGSQTVVTQEPSLTVSPGGTVTLTCRSSTGAVTTSNYANWVQQKPGQAPRGLIGGTNKRAPGTPARFSGSLLGGKAALTLSGVQPEDEAEYYCALWYSNLWVFGGGTKLTVLGGGGSGGGGS
light: DIQMTQSPSSLSASVGDRVTITCRASQDIGSNLNWLQQKPGKAIKRLIYATFGLDSGVPSRFSGSRSGTDFTLTISSLQPEDFATYYCQQYASFPYTFGGGTKVEIK
B2: Bis-108-H1L4 (bispecific antibody, not shown: a dimerising Fc or GST)
heavy: B1 heavy with L70M, S72T, K74T
heavy (part 1 of 2): B1 heavy with L70M, S72T, K74T
heavy (part 2 of 2): B1 heavy (part 2 of 2)
light: B1 light
B3: Bis-108-H5L3 (bispecific antibody, not shown: a dimerising Fc or GST)
heavy: B1 heavy with R38K, M48I, R67K, V68A, S72T
heavy (part 1 of 2): B1 heavy with R38K, M48I, R67K, V68A, S72T
heavy (part 2 of 2): B1 heavy (part 2 of 2)
light: B1 light with R66G, F71Y
B4: Bis-108-H2L4 (bispecific antibody, not shown: a dimerising Fc or GST)
heavy: B1 heavy with M48I, V68A, L70M, S72T, K74T
heavy (part 1 of 2): B1 heavy with M48I, V68A, L70M, S72T, K74T
heavy (part 2 of 2): B1 heavy (part 2 of 2)
light: B1 light
B5: ATG-Bis-108 (bispecific antibody, not shown: a dimerising Fc or GST)
heavy: EVQLQQSGPELVKPGASVKMSCKASGYTFTSYVIHWVKQKTGQGLEWIGYFNPYNDGTKYNEEFKGKATLTSDKSSNTAYMELNSLTSDDSAVYFCARGGVRRYFDVWGAGTTVTVSS
heavy (part 1 of 2): B5 heavy
heavy (part 2 of 2): B1 heavy (part 2 of 2)
light: DIQMTQSPSSLSASLGERVSLTCRASQDIGSNLNWLQQEPDGTIKRLIYATFGLDSGVPKRFSGSRSGSDYSLTISSLESEDFVDYYCQQYASFPYTFGGGTKLEIK

What follows are binders tested against GPRC5D (G-protein coupled receptor family C group 5 member D), human, on multiple myeloma cell lines (human) (UniProt Q9NZD1) (assay: cell-based or functional assay).
Chain of GPRC5D (G-protein coupled receptor family C group 5 member D), human, on multiple myeloma cell lines (human) (Q9NZD1 whole entry): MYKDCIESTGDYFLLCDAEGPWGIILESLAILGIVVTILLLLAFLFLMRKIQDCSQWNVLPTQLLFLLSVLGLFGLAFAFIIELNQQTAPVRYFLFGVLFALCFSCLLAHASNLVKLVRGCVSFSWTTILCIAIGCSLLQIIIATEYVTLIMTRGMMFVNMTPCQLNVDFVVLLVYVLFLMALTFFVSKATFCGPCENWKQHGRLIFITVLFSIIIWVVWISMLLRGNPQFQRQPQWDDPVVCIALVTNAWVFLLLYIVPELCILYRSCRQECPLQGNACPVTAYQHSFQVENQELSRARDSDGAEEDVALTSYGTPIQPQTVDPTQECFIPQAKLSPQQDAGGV

| Binder | IC50 (nM), T-Cell Dependent Cytotoxicity, MM.1S [nM] | Top (%), T-Cell Dependent Cytotoxicity, MM.1S [%] |
| --- | --- | --- |
| B1 | 0.0496 | 72.4 |
| B2 | 0.0597 | 75.5 |
| B3 | 0.0897 | 74.8 |
| B4 | 0.0934 | 74 |
| B5 | 0.0871 | 77.2 |
